Biological target: T1, OB-R (Homo sapiens, UniProt P48357)
T1 construct: The cytoplasmic domain and full-length human OB-R was cloned by PCR; expressed in transfected cells; host or cells: COS-7
T1 sequence (P48357 22-1165): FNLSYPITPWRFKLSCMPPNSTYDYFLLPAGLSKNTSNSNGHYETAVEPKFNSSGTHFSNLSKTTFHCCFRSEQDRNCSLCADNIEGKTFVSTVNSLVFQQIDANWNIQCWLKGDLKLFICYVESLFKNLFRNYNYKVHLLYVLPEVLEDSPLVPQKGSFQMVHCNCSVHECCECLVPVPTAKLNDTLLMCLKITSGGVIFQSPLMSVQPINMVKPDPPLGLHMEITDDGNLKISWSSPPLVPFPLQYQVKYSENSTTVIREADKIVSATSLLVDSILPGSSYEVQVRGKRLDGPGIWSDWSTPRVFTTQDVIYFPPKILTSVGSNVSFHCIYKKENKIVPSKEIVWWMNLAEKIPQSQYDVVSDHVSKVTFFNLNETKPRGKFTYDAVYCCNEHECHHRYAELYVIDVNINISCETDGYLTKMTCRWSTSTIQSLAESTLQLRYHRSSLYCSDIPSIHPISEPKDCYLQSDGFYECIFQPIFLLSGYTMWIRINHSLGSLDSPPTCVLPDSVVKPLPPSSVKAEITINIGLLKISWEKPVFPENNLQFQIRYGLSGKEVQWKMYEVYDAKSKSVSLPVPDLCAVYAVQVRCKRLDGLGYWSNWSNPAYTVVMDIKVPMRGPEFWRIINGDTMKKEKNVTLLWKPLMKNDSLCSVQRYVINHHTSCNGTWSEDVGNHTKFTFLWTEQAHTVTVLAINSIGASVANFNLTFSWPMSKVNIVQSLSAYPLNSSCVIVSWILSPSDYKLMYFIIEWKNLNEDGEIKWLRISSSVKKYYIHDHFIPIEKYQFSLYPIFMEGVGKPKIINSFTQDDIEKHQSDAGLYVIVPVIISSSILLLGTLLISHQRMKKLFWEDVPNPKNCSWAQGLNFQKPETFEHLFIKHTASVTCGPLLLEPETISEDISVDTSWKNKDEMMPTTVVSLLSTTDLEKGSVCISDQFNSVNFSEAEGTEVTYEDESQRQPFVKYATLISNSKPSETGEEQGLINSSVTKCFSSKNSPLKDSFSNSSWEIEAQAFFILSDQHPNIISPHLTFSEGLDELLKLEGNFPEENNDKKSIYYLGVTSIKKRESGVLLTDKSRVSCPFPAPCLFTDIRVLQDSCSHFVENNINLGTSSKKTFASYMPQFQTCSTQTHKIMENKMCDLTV
Test: Luciferase reporter gene assay (3(G3)-Cy6-LUC), leptin stimulation of COS cells expressing wild type OB-R
Format: cell-based
Settings: 100 ng/ml leptin for 24 hours, stimulated vs non-stimulated
Protocol: The cytoplasmic domain and full-length human OB-R was cloned by PCR using human fetal liver and adipocyte cDNA (Clontech) and cloned into the expression vectors pCMX and pMT21. Chimeric receptors were constructed by fusing the extracellular domain and transmembrane domain of TrkC (amino acids 1 to 458) to the cytoplasmic domain of OB-R (amino acids 865-1165). A triple myc epitope tag was added at the C-terminus of all OB-R constructs (18). Truncation and point mutant constructs were generated by PCR and the sequences of all constructs were verified. Expression constructs were transfected into COS-7 cells using lipofectamine (GIBCO-BRL); 36-48 hours after transfection, cells were starved for either 2 hour,s for chimeric receptors or overnight for full-length receptors prior to stimulation.
Expression constructs (1 μg) for OB-R, OB-RY1141F, OB-RY986F, OB-RY1078, 1079F, and OB-RY986, 1141F were co-transfected with 1 μg of 3(G3)-Cy6-LUC and 0.1 μg of pCMX.LacZ into COS-7 cells (6-well dishes) using lipofectamine. The day after transfection, media was changed to serum-free OptiMEM (GIBCO-BRL) and then treated with 100 ng/ml murine leptin (PeproTech) or human leptin (R&D Systems) for 24 hours. […] Luciferase and β-galactosidase activities were measured in cell lysates (30) and luciferase activity was normalized to β-galactosidase activity to control for transfection differences. […]

- induction of luciferase activity: 6 fold
Substance: leptin: the product of the obese gene, secreted by adipocytes; ligand of OB-R

Reference: patent US20020012949A1, “Assay systems for leptin-enhancing agents” (priority 1997, published 2002)
